This assay has as its target PGDH3-mCherry (protease-free, released from PGDH3-mCherry-TEV-mVenus by TEV cleavage) (Arabidopsis thaliana) (UniProt Q9LT69). The assay can be described thus: mass photometry; TwoMP instrument, 5 nM protein in PBS, 60 s movies.

As to “PGDH3-mCherry (protease-free, released from PGDH3-mCherry-TEV-mVenus by TEV cleavage) (from UniProt Q9LT69 39-588) (enzyme)”, the stoichiometry N came out at 2.

One may read the stoichiometry N as the number of molecules, sites or subunits per partner or assembly.

(Values after article PMC12611452.)
